# Experimental data from patent US20110263454A1, “Methods of Identifying Functional Characteristics of Promoters, Transcription Modifying Proteins and Transcription Modulating Agents” (Salk Institute for Biological Studies, priority 2008, published 2011).
# B1: PR: Progesterone Receptor (NR3C3), cDNA driver (protein, UniProt P06401 1-933, looked up)
# Progesterone receptor: MTELKAKGPRAPHVAGGPPSPEVGSPLLCRPAAGPFPGSQTSDTLPEVSAIPISLDGLLFPRPCQGQDPSDEKTQDQQSLSDVEGAYSRAEATRGAGGSSSSPPEKDSGLLDSVLDTLLAPSGPGQSQPSPPACEVTSSWCLFGPELPEDPPAAPATQRVLSPLMSRSGCKVGDSSGTAAAHKVLPRGLSPARQLLLPASESPHWSGAPVKPSPQAAAVEVEEEDGSESEESAGPLLKGKPRALGGAAAGGGAAAVPPGAAAGGVALVPKEDSRFSAPRVALVEQDAPMAPGRSPLATTVMDFIHVPILPLNHALLAARTRQLLEDESYDGGAGAASAFAPPRSSPCASSTPVAVGDFPDCAYPPDAEPKDDAYPLYSDFQPPALKIKEEEEGAEASARSPRSYLVAGANPAAFPDFPLGPPPPLPPRATPSRPGEAAVTAAPASASVSSASSSGSTLECILYKAEGAPPQQGPFAPPPCKAPGASGCLLPRDGLPSTSASAAAAGAAPALYPALGLNGLPQLGYQAAVLKEGLPQVYPPYLNYLRPDSEASQSPQYSFESLPQKICLICGDEASGCHYGVLTCGSCKVFFKRAMEGQHNYLCAGRNDCIVDKIRRKNCPACRLRKCCQAGMVLGGRKFKKFNKVRVVRALDAVALPQPVGVPNESQALSQRFTFSPGQDIQLIPPLINLLMSIEPDVIYAGHDNTKPDTSSSLLTSLNQLGERQLLSVVKWSKSLPGFRNLHIDDQITLIQYSWMSLMVFGLGWRSYKHVSGQMLYFAPDLILNEQRMKESSFYSLCLTMWQIPQEFVKLQVSQEEFLCMKVLLLLNTIPLEGLRSQTQFEEMRSSYIRELIKAIGLRQKGVVSSSQRFYQLTKLLDNLHDLVKQLHLYCLNTFIQSRALSVEFPEMMSEVIAAQLPKILAGMVKPLLFHKK
# B2: NR4a2: NR4a2 (NR4A2; NURR1), nuclear hormone receptor cDNA driver (protein, UniProt P43354 1-598, looked up)
# Nuclear receptor subfamily 4 …: MPCVQAQYGSSPQGASPASQSYSYHSSGEYSSDFLTPEFVKFSMDLTNTEITATTSLPSFSTFMDNYSTGYDVKPPCLYQMPLSGQQSSIKVEDIQMHNYQQHSHLPPQSEEMMPHSGSVYYKPSSPPTPTTPGFQVQHSPMWDDPGSLHNFHQNYVATTHMIEQRKTPVSRLSLFSFKQSPPGTPVSSCQMRFDGPLHVPMNPEPAGSHHVVDGQTFAVPNPIRKPASMGFPGLQIGHASQLLDTQVPSPPSRGSPSNEGLCAVCGDNAACQHYGVRTCEGCKGFFKRTVQKNAKYVCLANKNCPVDKRRRNRCQYCRFQKCLAVGMVKEVVRTDSLKGRRGRLPSKPKSPQEPSPPSPPVSLISALVRAHVDSNPAMTSLDYSRFQANPDYQMSGDDTQHIQQFYDLLTGSMEIIRGWAEKIPGFADLPKADQDLLFESAFLELFVLRLAYRSNPVEGKLIFCNGVVLHRLQCVRGFGEWIDSIVEFSSNLQNMNIDISAFSCIAALAMVTERHGLKEPKRVEELQNKIVNCLKDHVTFNNGGLNRPNYLSKLLGKLPELRTLCTQGLQRIFYLKLEDLVPPPAIIDKLFLDTLPF
# B3: hMR: Mineralocorticoid Receptor (NR3C2, MR), cDNA driver (protein, UniProt P08235 1-984, looked up)
# Mineralocorticoid receptor: METKGYHSLPEGLDMERRWGQVSQAVERSSLGPTERTDENNYMEIVNVSCVSGAIPNNSTQGSSKEKQELLPCLQQDNNRPGILTSDIKTELESKELSATVAESMGLYMDSVRDADYSYEQQNQQGSMSPAKIYQNVEQLVKFYKGNGHRPSTLSCVNTPLRSFMSDSGSSVNGGVMRAVVKSPIMCHEKSPSVCSPLNMTSSVCSPAGINSVSSTTASFGSFPVHSPITQGTPLTCSPNVENRGSRSHSPAHASNVGSPLSSPLSSMKSSISSPPSHCSVKSPVSSPNNVTLRSSVSSPANINNSRCSVSSPSNTNNRSTLSSPAASTVGSICSPVNNAFSYTASGTSAGSSTLRDVVPSPDTQEKGAQEVPFPKTEEVESAISNGVTGQLNIVQYIKPEPDGAFSSSCLGGNSKINSDSSFSVPIKQESTKHSCSGTSFKGNPTVNPFPFMDGSYFSFMDDKDYYSLSGILGPPVPGFDGNCEGSGFPVGIKQEPDDGSYYPEASIPSSAIVGVNSGGQSFHYRIGAQGTISLSRSARDQSFQHLSSFPPVNTLVESWKSHGDLSSRRSDGYPVLEYIPENVSSSTLRSVSTGSSRPSKICLVCGDEASGCHYGVVTCGSCKVFFKRAVEGQHNYLCAGRNDCIIDKIRRKNCPACRLQKCLQAGMNLGARKSKKLGKLKGIHEEQPQQQQPPPPPPPPQSPEEGTTYIAPAKEPSVNTALVPQLSTISRALTPSPVMVLENIEPEIVYAGYDSSKPDTAENLLSTLNRLAGKQMIQVVKWAKVLPGFKNLPLEDQITLIQYSWMCLSSFALSWRSYKHTNSQFLYFAPDLVFNEEKMHQSAMYELCQGMHQISLQFVRLQLTFEEYTIMKVLLLLSTIPKDGLKSQAAFEEMRTNYIKELRKMVTKCPNNSGQSWQRFYQLTKLLDSMHDLVSDLLEFCFYTFRESHALKVEFPAMLVEIISDQLPKVESGNAKPLYFHRK
# B4: CTF3: COUP-TF3 (NR2F6), cDNA driver (protein, UniProt P10588 1-404, looked up)
# Nuclear receptor subfamily 2 …: MAMVTGGWGGPGGDTNGVDKAGGYPRAAEDDSASPPGAASDAEPGDEERPGLQVDCVVCGDKSSGKHYGVFTCEGCKSFFKRSIRRNLSYTCRSNRDCQIDQHHRNQCQYCRLKKCFRVGMRKEAVQRGRIPHSLPGAVAASSGSPPGSALAAVASGGDLFPGQPVSELIAQLLRAEPYPAAAGRFGAGGGAAGAVLGIDNVCELAARLLFSTVEWARHAPFFPELPVADQVALLRLSWSELFVLNAAQAALPLHTAPLLAAAGLHAAPMAAERAVAFMDQVRAFQEQVDKLGRLQVDSAEYGCLKAIALFTPDACGLSDPAHVESLQEKAQVALTEYVRAQYPSQPQRFGRLLLRLPALRAVPASLISQLFFMRLVGKTPIETLIRDMLLSGSTFNWPYGSGQ
# How the values were obtained:
# [1] = system: mABCA1 promoter; assay: NHR-promoter luciferase screen, mABCA1 promoter; assay type: cell-based, mouse; conditions: for Luc. act., normalized to lacZ / Normalized Luc. act., normalized to control: ABCA1 promoter, hormone receptor with or without its ligand; for Normalized Luc. act., normalized to control: relative to control; for mABCA1 promoter reporter activity: transcription factor +/- ligand, control = 1.00
# Procedure, shortened: (§1)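 CV-1 cells were co-transfected with 50 ng NHR (homodimer or NHR/RXR heterodimer), 100 ng promoter-luciferase construct and 50 ng LacZ. Luciferase was normalized to LacZ and to a no-NHR/no-ligand control.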
# [2] = system: mDio2 promoter; assay: NHR-promoter luciferase screen, mDio2 promoter; assay type: cell-based, mouse; conditions: for Luc. act., normalized to lacZ / Normalized Luc. act., normalized to control: Dio2, HR component without or with its ligand; for mDio2 promoter reporter activity: transcription factor +/- ligand, control = 1.00
# Procedure, shortened: as §1
# [3] = system: mUCP2 promoter; assay: NHR-promoter luciferase screen, mUCP2 promoter; assay type: cell-based, mouse; conditions: for Luc. act., normalized to lacZ / Normalized Luc. act., normalized to control: mUCP2 promoter reporter, co-transfected HR, with or without its ligand; for Normalized Luc. act., normalized to control: relative to control; for luciferase activity normalized to lacZ activity and to a control, mUCP2: mUCP2 promoter-luciferase, CV-1 cells, NHR +/- ligand, control = 1.00
# Procedure, shortened: as §1
# [4] = system: hIFNg promoter; assay: NHR-promoter luciferase screen, hIFNg promoter; assay type: cell-based, human; conditions: for Luc. act., normalized to lacZ / Normalized Luc. act., normalized to control: IFNg promoter, HR component without or with ligand; for hIFNg promoter reporter activity: transcription factor +/- ligand, control = 1.00
# Procedure, shortened: as §1
# [5] = system: mCAR promoter; assay: NHR-promoter luciferase screen, mCAR promoter; assay type: cell-based, mouse; conditions: for luciferase activity normalized to lacZ activity and to a control, mCAR: mCAR promoter-luciferase, CV-1 cells, NHR +/- ligand, control = 1.00; for Luc. act., normalized to lacZ / Normalized Luc. act., normalized to control: mCAR promoter, HR/ligand component
# Procedure, shortened: as §1
# [6] = system: hPPARg2 promoter; assay: NHR-promoter luciferase screen, hPPARg2 promoter; assay type: cell-based, human; conditions: for Luc. act., normalized to lacZ / Normalized Luc. act., normalized to control: PPARG2 promoter, hormone receptor with or without its ligand; for Normalized Luc. act., normalized to control: relative to control; for Results of assays of transcription factor (+/- ligand) with hPPARg2: Table 6d, luciferase activity relative to control (control = 1.00)
# Procedure, shortened: as §1
molecule,measurement,setting,value
B1,"Luc. act., normalized to lacZ",[1],8.9
same,"Normalized Luc. act., normalized to control",[1],1.6
same,mABCA1 promoter reporter activity,[1],1.58
same,"Luc. act., normalized to lacZ",[2],21.4
same,"Normalized Luc. act., normalized to control",[2],1.4
same,mDio2 promoter reporter activity,[2],1.36
same,"Luc. act., normalized to lacZ",[3],178.8
same,"Normalized Luc. act., normalized to control",[3],1.6
same,"luciferase activity normalized to lacZ activity and to a control, mUCP2",[3],1.63
same,"Luc. act., normalized to lacZ",[4],22.6
same,"Normalized Luc. act., normalized to control",[4],1.4
same,hIFNg promoter reporter activity,[4],1.42
same,"luciferase activity normalized to lacZ activity and to a control, mCAR",[5],0.98
same,"Luc. act., normalized to lacZ",[5],37.53
same,"Normalized Luc. act., normalized to control",[5],1.0
same,"Luc. act., normalized to lacZ",[6],1.8
same,"Normalized Luc. act., normalized to control",[6],0.9
same,Results of assays of transcription factor (+/- ligand) with hPPARg2,[6],0.88
B2,"Luc. act., normalized to lacZ",[1],6.2
same,"Normalized Luc. act., normalized to control",[1],1.1
same,mABCA1 promoter reporter activity,[1],1.11
same,"Luc. act., normalized to lacZ",[2],12.4
same,"Normalized Luc. act., normalized to control",[2],0.8
same,mDio2 promoter reporter activity,[2],0.79
same,"Luc. act., normalized to lacZ",[3],129.8
same,"Normalized Luc. act., normalized to control",[3],1.2
same,"luciferase activity normalized to lacZ activity and to a control, mUCP2",[3],1.18
same,"Luc. act., normalized to lacZ",[4],24.3
same,"Normalized Luc. act., normalized to control",[4],1.5
same,hIFNg promoter reporter activity,[4],1.53
same,"luciferase activity normalized to lacZ activity and to a control, mCAR",[5],0.57
same,"Luc. act., normalized to lacZ",[5],21.74
same,"Normalized Luc. act., normalized to control",[5],0.6
same,"Luc. act., normalized to lacZ",[6],1.4
same,"Normalized Luc. act., normalized to control",[6],0.7
same,Results of assays of transcription factor (+/- ligand) with hPPARg2,[6],0.68
B3,"Luc. act., normalized to lacZ",[1],6.8
same,"Normalized Luc. act., normalized to control",[1],1.2
same,mABCA1 promoter reporter activity,[1],1.21
same,"Luc. act., normalized to lacZ",[2],12.7
same,"Normalized Luc. act., normalized to control",[2],0.8
same,mDio2 promoter reporter activity,[2],0.81
same,"Luc. act., normalized to lacZ",[3],58.8
same,"Normalized Luc. act., normalized to control",[3],0.5
same,"luciferase activity normalized to lacZ activity and to a control, mUCP2",[3],0.54
same,"Luc. act., normalized to lacZ",[4],10.4
same,"Normalized Luc. act., normalized to control",[4],0.7
same,hIFNg promoter reporter activity,[4],0.65
same,"luciferase activity normalized to lacZ activity and to a control, mCAR",[5],0.77
same,"Luc. act., normalized to lacZ",[5],29.38
same,"Normalized Luc. act., normalized to control",[5],0.8
same,"Luc. act., normalized to lacZ",[6],1.0
same,"Normalized Luc. act., normalized to control",[6],0.5
same,Results of assays of transcription factor (+/- ligand) with hPPARg2,[6],0.51
B4,"Luc. act., normalized to lacZ",[1],5.6
same,"Normalized Luc. act., normalized to control",[1],1.0
same,mABCA1 promoter reporter activity,[1],1.01
same,"Luc. act., normalized to lacZ",[2],15.3
same,"Normalized Luc. act., normalized to control",[2],1.0
same,mDio2 promoter reporter activity,[2],0.97
same,"Luc. act., normalized to lacZ",[3],54.4
same,"Normalized Luc. act., normalized to control",[3],0.5
same,"luciferase activity normalized to lacZ activity and to a control, mUCP2",[3],0.49
same,"Luc. act., normalized to lacZ",[4],28.5
same,"Normalized Luc. act., normalized to control",[4],1.8
same,hIFNg promoter reporter activity,[4],1.79
same,"luciferase activity normalized to lacZ activity and to a control, mCAR",[5],0.29
same,"Luc. act., normalized to lacZ",[5],11.2
same,"Normalized Luc. act., normalized to control",[5],0.3
same,"Luc. act., normalized to lacZ",[6],1.7
same,"Normalized Luc. act., normalized to control",[6],0.8
same,Results of assays of transcription factor (+/- ligand) with hPPARg2,[6],0.85
